The target of assay [1] is T1, huNav1.7α + β1-β2-β3 (human, UniProt Q15858 1-1988; A5A6L6 19-218; O60939 30-215; Q2KI11 23-215).
T1 construct: also called huNav1.7-beta1-beta2-beta3; huNav1.7-β1-β2-β3
Put plainly: binding FACS, CHO FlpIn. The procedure:
(§1) Binding of the ISVDs to cell-expressed Nav1.7α was detected via murine anti-Flag (Sigma, catalog #F1804). Briefly, cells were resuspended in FACS buffer (PBS, 10% FBS, NaN₃) and transferred to a 96-well V-bottom plate at 1×10^5 cells/well. Purified FLAG3-tagged ISVD was diluted in FACS buffer and added to the cells for 30 minutes at 4° C. […] Prior to the read-out, the samples were resuspended in 1 μg/mL propidium iodide (Sigma, catalog #P4170) to exclude dead cells. Between each step, the cells were centrifuged for 5 minutes at 200 grams and washed with 100 μL/well FACS buffer.

In another assay the target is T2, rhNav1.7α + β1-β2-β3 (rhesus monkey).
T2 construct: also called rhNav1.7-beta1-beta2-beta3; rhesus Nav1.7α
Description: binding FACS, CHO FlpIn cells. The procedure:
as §1

In assay [2] the target is T3, huNav1.7α + β1-β2-β3 (human, UniProt Q15858 1-1988; A5A6L6 19-218; O60939 30-215; Q2KI11 23-215).
T3 construct: Cell line (CHO FlpIn, HEK FlpIn, transient HEK293T) is named under assay; also called huNav1.7-beta1-beta2-beta3; human Nav1.7α with Navβ1, Navβ2 and Navβ3
Put plainly: binding FACS, CHO FlpIn cells. The procedure:
as §1

B1: F010301870 (VHH)
VHH: EVQLVESGGGVVQPGGSLRLSCATTSRAFIRDVFTGWYRRVPGKERELVARIYNGGNTNYADFAKGRFTISRDNAKKMVYLQMNSLRPEDTALYYCNFSGTINTGREYRSGDYWGQGTLVTVSS
notes: also called F0103464B09(L11V, S68T, T79Y, R81Q, S82aN, N82bS, K83R, G88A, V89L, L93N)
Take B1: in the assay with huNav1.7α + β1-β2-β3 [1], the Bmax worked out at 100% and the EC50 is 10 nM.

B2: F010302366 (VHH)
VHH: EVQLVESGGGVVQPGGSLRLSCAASSRAFIRDVFTGWYRQAPGKQRELVARIYNGGNTNYADSAKGRFTISRDNAKKTVYLQMNSLRPEDTALYYCLFSGTISTGREYRSGDYWGQGTLVTVSS
notes: also called F0103464B09(L11V, T24A, T25S, R39Q, V40A, E44Q, F62S, S68T, M77T, T79Y, R81Q, S82aN, N82bS, K83R, G88A, V89L, N99S)
As to B2, in the assay with huNav1.7α + β1-β2-β3 [1], the Bmax stood at 100% and the EC50 came out at 3.7 nM.

B3: F010302368 (VHH)
VHH: EVQLVESGGGVVQPGGSLRLSCAASSRAFIRDVFTGWYRQAPGKQRELVARIYNGGNTNYADSVKGRFTISRDNAKKTVYLQMNSLRPEDTALYYCLFSGTISTGREYRSGDYWGQGTLVTVSS
notes: also called F0103464B09(L11V, T24A, T25S, R39Q, V40A, E44Q, F62S, A63V, S68T, M77T, T79Y, R81Q, S82aN, N82bS, K83R, G88A, V89L,N99S)
For the molecule B3, in the assay with huNav1.7α + β1-β2-β3 [1], the Bmax is 100% and the EC50 stood at 3.9 nM.

B4: F010302333 (VHH)
VHH: EVQLVESGGGVVQPGGSLRLSCAASSRQFIRDVFTGWYRRAPGKQRELVARIYNEGNTNYADSAKGRFTISRDNAKKTVYLQMNSLRPEDTALYYCLFSGTISTGREYRSGDYWGQGTLVTVSS
For B4, in the assay with huNav1.7α + β1-β2-β3 [1], the Bmax was 100% and the EC50 was 4.1 nM.

B5: F010302365 (VHH)
VHH: EVQLVESGGGVVQPGGSLRLSCAASSRAFIRDVFTGWYRRAPGKQRELVARIYNGGNTNYADSAKGRFTISRDNAKKTVYLQMNSLRPEDTALYYCLFSGTISTGREYRSGDYWGQGTLVTVSS
notes: also called F0103464B09(L11V, T24A, T25S, V40A, E44Q, F62S, S68T, M77T, T79Y, R81Q, S82aN, N82bS, K83R, G88A, V89L, N99S)
Take B5: in the assay with huNav1.7α + β1-β2-β3 [1], the Bmax came to 100% and the EC50 stood at 3.1 nM.

B6: F010301867 (VHH)
VHH: EVQLVESGGGLVQPGGSLRLSCATTSRQFIRDVFTGWYRRVPGKERELVARIYNGGNTNYADFAKGRFSISRDNAKKMVTLRMSNLKPEDTGVYYCLFSGTINTGREYRSGDYWGQGTLVTVSS
notes: A28Q vs F0103464B09 (Kabat)
For the molecule B6, in the assay with rhNav1.7α + β1-β2-β3, the Bmax came out at 74% and the concentration giving a half-maximal response (EC50) turned out to be 22 nM. The EC50 in the assay with huNav1.7α + β1-β2-β3 [2] came to 4.8 nM.

B7: F010301881 (VHH)
VHH: EVQLVESGGGLVQPGGSLRLSCATTSRAFIRDVFTGWYRRVPGKERELVARIYNWGNTNYADFAKGRFSISRDNAKKMVTLRMSNLKPEDTGVYYCLFSGTINTGREYRSGDYWGQGTLVTVSS
notes: G54W vs F0103464B09 (Kabat)
In the case of B7, the Bmax in the assay with rhNav1.7α + β1-β2-β3 stood at 99%. Also, the EC50 stood at 5.8 nM with rhNav1.7α + β1-β2-β3 and 4.2 nM with huNav1.7α + β1-β2-β3 [2].

B8: F010301880 (VHH)
VHH: EVQLVESGGGLVQPGGSLRLSCATTSRAFIRDVFTGWYRRVPGKERELVARIYNSGNTNYADFAKGRFSISRDNAKKMVTLRMSNLKPEDTGVYYCLFSGTINTGREYRSGDYWGQGTLVTVSS
notes: G54S vs F0103464B09 (Kabat)
Take B8: in the assay with rhNav1.7α + β1-β2-β3, the Bmax is 73% and the EC50 turned out to be 24 nM. In the assay with huNav1.7α + β1-β2-β3 [2], the half-maximal effective concentration (EC50) is 4.9 nM.

B9: F010301878 (VHH)
VHH: EVQLVESGGGLVQPGGSLRLSCATTSRAFIRDVFTGWYRRVPGKERELVARIYNEGNTNYADFAKGRFSISRDNAKKMVTLRMSNLKPEDTGVYYCLFSGTINTGREYRSGDYWGQGTLVTVSS
notes: G54E vs F0103464B09 (Kabat)
For the molecule B9, in the assay with rhNav1.7α + β1-β2-β3, the Bmax came to 83% and the 50% effective concentration (EC50) came out at 27 nM. In addition, the concentration for a half-maximal effect (EC50) with huNav1.7α + β1-β2-β3 [2] was 7.1 nM.

B10: F010302341 (VHH)
VHH: EVQLVESGGGVVQPGGSLRLSCAASSRQFIRDVFTGWYRQAPGKQRELVARIYNEGNTNYADSAKGRFTISRDNAKKTVYLQMNSLRPEDTALYYCLFSGTISTGREYRSGDYWGQGTLVTVSS
For B10, in the assay with huNav1.7α + β1-β2-β3 [1], the Bmax was 100% and the EC50 stood at 5.3 nM.

B11: F010302357 (VHH)
VHH: EVQLVESGGGVVQPGGSLRLSCAASSRQFIRDVFTGWYRQAPGKQRELVARIYNEGNTNYADSVKGRFTISRDNAKKTVYLQMNSLRPEDTALYYCLFSGTISTGREYRSGDYWGQGTLVTVSS
B11: in the assay with huNav1.7α + β1-β2-β3 [1], the Bmax is 100% and the EC50 was determined as 5.3 nM.

For orientation: EC50 means the concentration giving half of the maximal effect.

Values taken from patent US20240002497A1 (Merck Sharp & Dohme, published 2024).
